Columns and labels:
[1] = molecular target: SARS-CoV-2 spike S1 protein (SARS-CoV-2, UniProt P0DTC2 16-685)
[2] = molecular target: SARS-CoV-2 spike S1 protein (SARS-CoV-2, UniProt P0DTC2 16-685); remark: listed apart in the source
[3] = molecular target: SARS-CoV-2 spike receptor-binding domain (RBD) (SARS-CoV-2, UniProt P0DTC2 319-541)
[4] = molecular target: SARS-CoV-2 spike S2 protein (SARS-CoV-2, UniProt P0DTC2 686-1213)
[5] = molecular target: SARS-CoV-2 Spike (S) trimer (SARS-CoV-2, UniProt P0DTC2 16-1213); experiment: ELISA on coated S trimer, 1:50

B1: AB-009769 (antibody, V domains shown)
VH: EVQLVESGGGLVQPGGSLRLSCAASGFTFSSYWMSWVRQAPGKGLEWVANIKQDGSEKYYVDSVKGRFTISRDNAKNSLYLQMNSLRAEDTAVYYCARSPEVLWFGDPVLDNWFDPWGQGTLVTVSS
VL: SYELTQPPSVSVSPGQTARITCSGDALPKQYAYWYQQKPGQAPVLVIYKDSERPSGIPERFSGSSSGTTVTLTISGVQAEDEADYYCQSADSSGTYPVVFGGGTKLTVL
B1 showed a Kd [1] of 106 nM, a koff [1] of 0.00194 s⁻¹ and a kon [1] of 18400 M⁻¹ s⁻¹.

B2: AB-009221 (antibody, V domains shown)
VH: EVQLVESGGGLVQPGGSLRLSCAASGFTVSSNYMSWVRQAPGKGLEWVSVIYSGGSTYYADSVKGRFTISRHNSKNTLYLQMNSLRAEDTAVYYCARDRNAFDIWGQGTMVIVSS
VL: DIQMTQSPSSLSASVGDRVSITCQASQDISNDLNWYQQKPGKAPKLLVYDASKLETGVPPRFSGSGSGTDFTFTISSLQPEDIATYYCQQYDNLPLYSFGQGTKLEIK
B2 gave a Kd [2] of 34 nM, a koff [2] of 0.00128 s⁻¹ and a kon [2] of 37700 M⁻¹ s⁻¹. For the same binder, the Kd [3] was 26.4 nM, the koff [3] was 0.00121 s⁻¹ and the kon [3] was 45800 M⁻¹ s⁻¹.

B3: AB-009346 (antibody, V domains shown)
VH: EVQLVESGGGVVRPGGSLRLSCAASGFTFDDYGMSWVRQAPGKGLEWVSGINWNGGSTGYADSVKGRFTISRDNAKNSLYLQMNSLRAEDTALYYCARWPLLGISGYYHYYMDVWGKGTTVTVSS
VL: QSALTQPRSVSGSPGQSVTISCTGTSSDVGGYNYVSWYQQHPGKAPKLMIYDVSKRPSGVPDRFSGSKSGNTASLTISGLQAEDEADYYCCSYAGSYTLLFGGGTKLIVL
B3 was tested, and the Kd [1] was 12.5 nM, the koff [1] was 0.000523 s⁻¹ and the kon [1] was 41700 M⁻¹ s⁻¹.

B4: AB-009080 (antibody, V domains shown)
VH: QVQLQQWGAGLLKPSETLSLTCAVYGGSFSGYYWSWIRQPPGKGLEWIGEINHSGSTNYNPSLKSRVTISVDTSKNQFSLKLSSVTAADTAVYYCARGLPVTTFYYYYYGMDVWGQGTTVTVSS
VL: not shown
Work on B4 yielded a Kd [4] of 0.111 nM, a koff [4] of 2.79e-07 s⁻¹ and a kon [4] of 2520 M⁻¹ s⁻¹. The “OD 450 nm” value [5] was 0.166 OD.

B5: AB-009281 (antibody, V domains shown)
VH: EVQLVETGGGLIQPGGSLRLSCAASGFTVSSNYMSWVRQAPGKGLEWVSVIYSGGSTYYADSVKGRFTISRDNSKNTLYLQMNSLRAEDTAVYYCARDLYYYGMDVWGQGTTVTVSS
VL: DIQLTQSPSFLSASVGDRVTITCRASQGISSYLAWYQQKPGKAPKLLIYAASTLQSGVPSRFSGSGSGTEFTLTISSLQPEDFATYYCQQLNSYPTFGQGTKVEIK
With B5 the Kd [1] was 16.7 nM, the koff [1] was 0.00136 s⁻¹ and the kon [1] was 81200 M⁻¹ s⁻¹.

B6: AB-009293 (antibody, V domains shown)
VH: QAQLVESGGGVVQPGRSLRLSCAASGFNFNNYGMHWVRLAAGKGLEWVAFISYEGSITHYADSVKGRFTVSRDFSKNTLYLQMNRLTTGDTAVYYCAKRREVLHLWRDEMDVWGQGTTVTVSS
VL: DIQMTQSPPSLSASVGDRVTFTCRASQDITNSLAWFQQRPGKAPKSLIYAASTLHSGVPSKFSGSGSGTDFTLTITSLQPEDVATYYCQQYKTYPFTFGQGTRLEIK
In the case of B6, the Kd [4] is reported as 0.0628 nM, the koff [4] is reported as 3.25e-07 s⁻¹ and the kon [4] is reported as 5170 M⁻¹ s⁻¹.

B7: AB-009361 (antibody, V domains shown)
VH: EVQLVESGGGLAQPGGTLRLSCTGYGFIFNNYGLTWVRQAPGKGLEWLSVLSGSSYIKYEADSVRGRFTISRDNSKNTLYLEMNSLTAEDTAVYYCARKGVGSQDYGLDVWGQGTTVIVSS
VL: QSVLAQPPSASETPGQSVTISCSGSTSNIGSNFVYWYQQLPGTAPKLLIYRNTQRPSGVPDRFSGSKSATSASLAISGLRPEDEADYYCAAWDDSLSGGVFGTGTKVTVL
In the case of B7, the “OD 450 nm” value [5] is reported as 1.39 OD.

B8: AB-009306 (antibody, V domains shown)
VH: QVQLVQSGAEVKKPGASVKVPCKASGYTFTSYQMHWVRRAPGQGLEWMGLIDPDTGGTRYTQNFQGRVTMTRDTSTTTVYMELNSLTSGDTAVYYCARGGRVGATYPYNMDVWGKGTTVTVSS
VL: SYELTQPPSVSVSPGQTARITCSGDALPKKYAYWYQQKSGQAPVLVIYEDSKRPSGIPERFSGSSSGTMATLTISGAQVEDDSDYYCFSTDSSGNHGVFGGGTRLTVL
B8 gave a Kd [4] of 0.22 nM, a koff [4] of 2.44e-07 s⁻¹ and a kon [4] of 1110 M⁻¹ s⁻¹.

B9: AB-009269 (antibody, V domains shown)
VH: QVQLVQSGAEVKKPGASVKVSCKASGYTFTSYGISWVRQAPGQGLEWMGWISAYNGNTNYAQKLQGRVTMTTDTSTSTAYMELRSLRSDDTAVYYCAREGDCSGGSCYSGYYYYYGMDVWGQGTTVTVSS
VL: EIVLTQSPATLSLSPGERATLSCRASQSVSSYLAWYQQKPGQAPRLLIYDASNRATGIPARFSGSGSGTDFTLTISSLEPEDFAVYYCQQRSNWGTFGPGTKVDIK
Binder B9 has a Kd [2] of 16.7 nM, a koff [2] of 0.000643 s⁻¹ and a kon [2] of 38500 M⁻¹ s⁻¹. For the same binder, the Kd [3] was 12 nM, the koff [3] was 0.000675 s⁻¹ and the kon [3] was 56300 M⁻¹ s⁻¹.

B10: AB-009620 (antibody, V domains shown)
VH: QITLKESGPTLVKPTQTLTLTCTFSGFSLSTSGVGVGWIRQPPGKALEWLALIYWDDDKRYSPSLKSRLTITKDTSKNQVVLTMTNMDPVDTATYYCAHHEVATVFDYWGQGTLVTVSS
VL: QSALTQPASVSGSPGQSITISCTGTSSDVGAYNYVSWYQQHPGKAPKLMIYEVSNRPSGVSNRFSGSKSGNTASLTISGLQAEDEADYYCSSYTSSSTVFGGGTKLTVL
Work on B10 yielded a Kd [1] of 27.5 nM, a koff [1] of 0.00078 s⁻¹ and a kon [1] of 28400 M⁻¹ s⁻¹.

B11: AB-009661 (antibody, V domains shown)
VH: QVQLVESGGGVVQPGRSLRLSCAASGFTFSSYGMHWVRQAPGKGLEWVAVISYDGSNKYYADSVKGRFTISRDNSKNTLYLQMNSLRAEDTAVYYCAKDYGDYGGMDVWGQGTTVTVSS
VL: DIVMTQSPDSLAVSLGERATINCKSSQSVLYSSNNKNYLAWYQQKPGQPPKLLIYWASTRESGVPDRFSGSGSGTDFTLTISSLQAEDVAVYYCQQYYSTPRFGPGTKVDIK
B11 showed a Kd [1] of 84 nM, a koff [1] of 0.00428 s⁻¹ and a kon [1] of 51000 M⁻¹ s⁻¹.

B12: AB-009270 (antibody, V domains shown)
VH: QMQLVQSGPEVKKPGTSVKVSCKASGFTFTSSAMQWVRQARGQRLEWIGWIVVGSGNTNYAQKFQERVTITRDMSTSTAYMELSSLRSEDTAVYYCAVNYCSSTSCYDAFDIWGQGTMVTVSS
VL: not shown
Binder B12 has a Kd [1] of 3.02 nM.

B13: AB-009760 (antibody, V domains shown)
VH: EVQLVQSGAEVKKPGESLKISCKGSGYSFTSYWIGWVRQMPGKGLEWMGIIYPGDSDTRYSPSFQGQVTISADKSISTAYLQWSSLKASDTAMYYCARSRSSDYFDYWGQGTLVTVSS
VL: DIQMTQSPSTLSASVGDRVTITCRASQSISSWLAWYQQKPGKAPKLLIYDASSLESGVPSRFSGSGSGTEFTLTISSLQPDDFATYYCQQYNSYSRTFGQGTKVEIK
For B13, the Kd [1] was 4.16 nM, the koff [1] was 0.000267 s⁻¹ and the kon [1] was 64000 M⁻¹ s⁻¹.

B14: AB-009747 (antibody, V domains shown)
VH: QVQLVESGGGVVQPGGSLRLSCAASGFTFSNYGMHWVRQAPGKGLEWVAFIRYDGSNEYYADSVKGRFTISRDNSKNTLYLHMNSLRPEDTAVYYCAKQGLLSNYYYGMDVWGQGTTVTVSS
VL: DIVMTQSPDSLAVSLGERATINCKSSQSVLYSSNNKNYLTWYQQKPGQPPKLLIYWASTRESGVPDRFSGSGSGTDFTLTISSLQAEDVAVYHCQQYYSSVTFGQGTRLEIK
B14 was tested, and the Kd [2] was 45.2 nM, the koff [2] was 0.00379 s⁻¹ and the kon [2] was 83700 M⁻¹ s⁻¹. For the same binder, the koff [3] was 0.00105 s⁻¹.

B15: AB-009329 (antibody, V domains shown)
VH: QLQLQESGPGLVKPSETLSLTCTVSGGSISSSSYYWGWIRQPPGKGLEWIGSIYYSGSTYYNPSLKSRVTISVDTSKNQFSLKLSSVTAADTAVYYCARHKMGWLQFAGWFDPWGQGTLVTVSS
VL: SSELTQDPAVSVALGQTVRITCQGDSLRSYYASWYQQKPGQAPVLVIYGKNNRPSGIPDRFSGSSSGNTASLTITGAQAEDEADYYCNSRDSSGNHWVFGGGTKLTVL
For B15, the “OD 450 nm” value [5] was 0.235 OD.

B16: AB-009364 (antibody, V domains shown)
VH: QVQLVESGGGVVQPGRSLRLSCAASGFTFSSYAMHWVRQAPGKGLEWVAVISYDGSNKYYADSVKGRFTISRDNSKNTLYLQMNSLRAEDTAVYYCARDPDYYDSSSDAFDIWGQGTMVTVSS
VL: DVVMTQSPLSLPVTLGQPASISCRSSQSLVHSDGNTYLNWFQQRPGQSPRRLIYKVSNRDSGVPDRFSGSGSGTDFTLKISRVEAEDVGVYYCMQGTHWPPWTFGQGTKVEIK
For B16, the “OD 450 nm” value [5] was 1.06 OD.

B17: AB-009615 (antibody, V domains shown)
VH: QVQLVESGGGVVQPGRSLRLSCAASGFTFSSYGMHWVRQAPGKGLEWVAVIWYDGSNKYYADSVKGRFTISRDNSKNTLYLQMNSLRAEDTAVYYCAKVGSPYCSGGSCYSGYFDYWGQGTLVTVSS
VL: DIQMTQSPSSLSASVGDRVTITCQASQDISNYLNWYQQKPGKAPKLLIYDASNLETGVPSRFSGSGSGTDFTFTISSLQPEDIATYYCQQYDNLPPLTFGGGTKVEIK
Work on B17 yielded a Kd [1] of 36.6 nM, a koff [1] of 0.00276 s⁻¹ and a kon [1] of 75400 M⁻¹ s⁻¹.

B18: AB-009343 (antibody, V domains shown)
VH: QAQLVESGGGVVQPGRSLRLSCAASGFTFNNHGMHWVRQVPGKGLEWVAVISYEGSKKDYADSVKGRFSISRDNSKQTVYLQMNSLRVEDTAVYYCAKDAAIFMIYPSRYFDLWGRGTLLTVSS
VL: SYELTQPPSMSVSPGQTASITCSGYILGDVSASWYQQKPGQSPVLIIYQDTKRPSGIPDRFSGSDSGNTATLTISGTQATDEADYYCQAWDSRTHVVFGGGTKLTVL
For B18, the “OD 450 nm” value [5] was 0.459 OD.

B19: AB-009666 (antibody, V domains shown)
VH: EVQLVESGGGLVQPGGSLRLSCAASGFTFSSYDMHWVRQATGKGLEWVSTIGTAGDTYYPGSVKGRFTISRENAKNSLYLQMNSLRAEDTAVYYCARVNYDSSGYPTYWYFDLWGRGTLVTVSS
VL: DIQMTQSPSSLSASVGDRVTITCRASQSISRYLNWYQQKPGKAPKLLIYAASSLQSGVPSRFSGSGSGTDFTLTISSLQPEDFATYNCQQSYSSPPWTFGQGTKVEIK
In the case of B19, the Kd [2] is reported as 11.9 nM, the koff [2] is reported as 0.000546 s⁻¹ and the kon [2] is reported as 45900 M⁻¹ s⁻¹. For the same binder, the Kd [3] was 3.04 nM, the koff [3] was 0.00062 s⁻¹ and the kon [3] was 204000 M⁻¹ s⁻¹.

B20: AB-009616 (antibody, V domains shown)
VH: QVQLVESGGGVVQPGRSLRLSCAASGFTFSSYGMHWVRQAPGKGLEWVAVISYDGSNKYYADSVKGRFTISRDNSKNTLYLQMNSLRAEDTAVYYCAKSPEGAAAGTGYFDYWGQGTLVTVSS
VL: SYVLTQPPSVSVAPGKTARITCGGNNIGSKSVHWYQQKPGQAPVLVVYDDSDRPSGIPERFSGSNSGNTATLTISRVEAGDEADYYCQVWDSSSDPWVFGGGTKLTVL
B20 gave a Kd [2] of 13.3 nM, a koff [2] of 0.000755 s⁻¹ and a kon [2] of 56900 M⁻¹ s⁻¹. The Kd [3] was 3 nM, the koff [3] was 0.000287 s⁻¹ and the kon [3] was 95800 M⁻¹ s⁻¹.

B21: AB-009110 (antibody, V domains shown)
VH: QVQLVQSGAEVKEPGASVKVSCNASGYIFTSYGISWVRQAPGQGLEWVGWISGNNGNTNYAQKFQGRVTLTTDTSTSTAYLELRSLTSADTGVYFCARARLPSAYWGPGTLLTVSS
VL: EILLTQSPATLSVSPGERGSLSCRASQSVGTNLAWYQQKPGQAPRLLIYGASARATGIPARFSGSGSGTEFTLTISSLQSEDFGVYYCQQYNDWPPWTFGQGTKVEIK
B21 was tested, and the “OD 450 nm” value [5] was 0.081 OD.

— US20240327505A1 (published 2024)
